# According to paper PMC9613979, “Endothelial alpha globin is a nitrite reductase” (Nature Communications, 2022):
# No end group written: not given here. Alexa Fluor 488 = Alexa Fluor 488 fluorescent dye tag
# B1: alpha globin mimetic peptide (alpha globin binding sequence LSFPTTKTYF) (peptide)
# peptide: LSFPTTKTYF-{Alexa Fluor 488}
# notes: source: synthetic peptide (AnaSpec)
# Target: T1, recombinant eNOS oxygenase domain
# T1 chain: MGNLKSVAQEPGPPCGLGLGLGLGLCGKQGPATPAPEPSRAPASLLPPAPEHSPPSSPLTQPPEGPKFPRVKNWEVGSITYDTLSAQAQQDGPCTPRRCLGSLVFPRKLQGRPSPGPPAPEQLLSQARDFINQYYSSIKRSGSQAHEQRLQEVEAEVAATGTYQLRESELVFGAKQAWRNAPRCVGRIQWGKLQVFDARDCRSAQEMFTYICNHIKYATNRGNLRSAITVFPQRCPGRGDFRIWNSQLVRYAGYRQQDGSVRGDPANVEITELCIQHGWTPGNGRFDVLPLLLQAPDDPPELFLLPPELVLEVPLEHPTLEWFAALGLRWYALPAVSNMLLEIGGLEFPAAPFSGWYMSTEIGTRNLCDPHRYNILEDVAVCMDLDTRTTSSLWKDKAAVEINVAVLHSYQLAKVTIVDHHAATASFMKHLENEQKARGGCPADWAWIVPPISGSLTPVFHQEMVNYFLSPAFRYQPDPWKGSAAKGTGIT
# Assay: fluorescence polarisation; 1 μM recombinant oxygenase domain of eNOS incubated with peptide labelled with Alexa Fluor 488 at the C-terminus; SpectraMax M5 plate reader; triplicate measurements per concentration
# Details: both partners purified
binder,measurement,value
B1,Kd,16.8 nM
